Source: patent US11866472B2, “Peptide for treating retinitis pigmentosa” (DAIICHI SANKYO COMPANY, LIMITED, priority 2018, dated 2024)

Legend:
[1] = system: rat model of retinal damage induced by light exposure; experiment: Retinal protective effect in rat model of retinal damage induced by light exposure; assay type: in vivo
Procedure: Rat models of retinal damage induced by light exposure are models that induce the cell death of retinal photoreceptor cells by light exposure and are universally used as model animals of retinal degeneration (Daniel T. Organisciak et al., (1996) Invest Ophthalmol Vis Sci. Vol. 37 (No. 11): p. 2243-2257). A 0.5% (W/V) tropicamide-0.5% phenylephrine hydrochloride ophthalmic solution was ocularly instilled under adaptation to darkness to rats adapted to darkness for 72 hours. Then, the rats were exposed to white light of 5500 Lux for 3 hours. The rats thus exposed were adapted again to darkness for about 24 hours and then raised for 2 days under light-dark conditions of ordinary raising. After euthanasia, the eyeballs were excised and fixed by dipping in a 3.7% (W/V) formaldehyde-0.5 to 1% (W/V) methanol-0.2% (W/V) picric acid fixative for 24 hours or longer. After paraffin embedding, thin sliced sections were prepared. The sections were stained with hematoxylin-eosin, and a nucleus count in an outer nuclear layer of a cross-section of the retina was determined to evaluate retinal damage.
Immediately before light exposure of rats, 5 μL of HTRA1-inhibiting peptide H308 having a concentration of 0.04 mg/mL or 0.2 mg/mL was intravitreally administered under anesthesia. n=4 for a normal saline administration group, and n=5 for the other groups.
The retinal protective effects of three HTRA1-inhibiting peptides prepared in Example 6 were evaluated using the rat models of retinal damage induced by light exposure, constructed in Example (5-1). The operation followed Example 5. n=6 for all groups.

[2] = system: ARPE-19 cells (VEGF mRNA); experiment: VEGF mRNA induction test using human retinal pigment epithelial cells ARPE-19; assay type: cell-based; conditions: 1 μM peptide co-added with H2O2 500 μM, normal human serum complement 25% and HTRA1 1 μM; 4 hours
Procedure: ARPE-19 cells were cultured until confluent in 12 mm Transwell with […] Pore Polyester Membrane Insert, Sterile (Corning Inc.) under conditions of 37° C. and 5% CO2 using a DMEM/F-12 medium (Wako Pure Chemical Industries, Ltd.) containing 10% fetal bovine serum (FBS) and penicillin-streptomycin (Thermo Fisher Scientific Inc.). Then, the cells were cultured in FBS-free DMEM/F-12 for 5 days. H2O2 (final concentration: 500 μM) was added to the upper and lower layers of the chamber, and normal human serum complement (Quidel Corp.) (final concentration: 25%) was added to the upper layer of the chamber. […] Four hours later, the culture supernatant was removed, and the cells were washed with PBS. Then, mRNA was extracted using SuperPrep™ Cell Lysis & RT Kit for qPCR (Toyobo Co., Ltd.) and subjected to a reverse transcription reaction. The mRNA level of VEGF was quantitatively analyzed by TaqMan Gene Expression Assays (Hs000900055_m1 and Hs02786624_g1; Thermo Fisher Scientific Inc.) using a 7900HT Fast Real-Time PCR System (Applied Biosystems, Inc.). GAPDH was used in the correction of the mRNA level.

[3] = system: human umbilical vein endothelial cells (HUVEC); experiment: HUVEC migration test; assay type: cell-based; conditions: 300 nM in EGM growth medium; 2 hours
Procedure: HUVEC (Kurabo Industries Ltd.) was cultured for 18 hours under conditions of 37° C. and 5% CO2 in a medium (0.1% BSA-containing serum-free EGM) in which EBM™-2 basal medium (Lonza Walkersville, Inc.) containing 0.1% BSA was supplemented with an EGM™-2 SingleQuots™ additive factor set except for serum and VEGF. Then, the cells were adjusted to 4×10^5 cells/mL with 0.1% BSA-containing serum-free EGM. 4×10^5 cells/mL of the HUVEC suspension was added at 50 μL/well to the upper layer of a chamber of a Corning FluoroBlok HTS 96 Well Multiwell Permeable Support System with a […] High Density PET Membrane (Corning Inc.) having a gelatin-coated membrane. Then, each sample described below (medium 1, 2 or 3) was added at 210 μL/well to the lower layer of the chamber (n=3). […]
A FluoroBlok HTS 96 Well Multiwell Support System supplemented with the cells and the sample was incubated for 2 hours under conditions of 37° C. and 5% CO2. […] The fluorescence intensity (excitation wavelength/fluorescence wavelength: 485 nm/535 nm) of each well was measured using a plate reader (ARVO-MX, PerkinElmer, Inc.), and the migrated cells were counted for each well according to the following expression. Migrated cells=Mean fluorescence intensity of wells containing HUVEC (n=3)—Mean fluorescence intensity of blank wells (n=3).

[4] = system: HFD-HQ-loaded 3-year-old rabbits; experiment: Protective effect on RPE cells in rabbit retinal damage model (HFD-HQ loading); assay type: in vivo; conditions: 50 μL of 40 mg/mL intravitreally 2 months after start of HFD-HQ; evaluated at 4 months; vs normal saline fellow eye
Text: Retinal damage models prepared using high-fat diet (HFD) and hydroquinone (HQ) are models in which oxidative stress is induced by a pro-oxidant to cause retinal damage. These models have been reported only for mice (Diego G. Espinosa-Heidmann et al., (2006) Invest Ophthalmol Vis Sci., Vol. 47 (No. 2): p. 729-737). Accordingly, 3-year-old JW rabbits were fed for 4 months with RC4 (Oriental Yeast Co., Ltd.) diet containing 1.5% (W/V) coconut oil-0.25% (W/V) cholesterol-1.5% (W/V) peanut oil-2.4% (W/V) hydroquinone (HFD-HQ) to construct rabbit retinal damage models. After euthanasia, the eyeballs were excised, and the anterior segment of the eye was removed by an external incision of about 5 mm from the corneal limbus. The vitreous body was further separated. Then, retina-choroid-sclera was fixed by dipping in 4% (W/V) paraformaldehyde fixative for 24 hours or longer. […] The stained choroid was observed under a fluorescence microscope (BZ-9000; Keyence Corp.). The area of stained retinal pigment epithelial (RPE) cells was determined to evaluate RPE cell damage.
The retinal protective effect of the HTRA1-inhibiting peptide H308 prepared in Example 1 was evaluated using the rabbit models. […]
After 4 months from the start of feeding, RPE cell hypertrophy in the model animals was evaluated. […]

HTRA1 (cat) = molecular target: T1, HTRA1 (cat) (Homo sapiens, UniProt Q92743); experiment: HTRA1 (cat) inhibitory activity using peptide substrate H2-Opt (Example 3-1); assay type: biochemical; conditions: decomposition rate of H2-Opt; borate buffer pH 8.5; peptide 1.875 to 1,000 nM
T1 construct: The protease domain (158Gly to 373Lys), which excludes the N-terminal domain and the PDZ domain; made in house; host or cells: E. coli BL21 (DE3)
Procedure: A substrate peptide H2-Opt (Mca-IRRVSYSFK(Dnp)K) (SEQ ID NO:66) (Peptide Institute, Inc.: SEQ ID NO: 54, FIG. 8) was dissolved at 10 mM in DMSO, diluted with an assay buffer (50 mM borate and 150 mM NaCl, pH 8.5), and used at a final concentration of 10 μM. HTRA1 (HTRA1 (cat) or HTRA1 (full)) and each HTRA1-inhibiting peptide diluted with an assay buffer were mixed at 25 μL each and reacted at 37° C. for 20 minutes. Then, 50 μL of the substrate diluted with an assay buffer was added thereto. A fluorescent signal (excitation at 328 nm/emission at 393 nm) was measured using Enspire (PerkinElmer, Inc.). The final concentration of HTRA1 was 100 nM, and the final concentration of the HTRA1-inhibiting peptide was 1.875 to 1,000 nM. PROTEOSAV® SS96F black plate (Sumitomo Bakelite Co., Ltd.) was used in the reaction and the measurement.
The substrate peptide decomposition rate of the HTRA1-inhibiting peptide at each concentration was calculated. When the decomposition rate at an inhibitor concentration of 0 nM was defined as 100%, the HTRA1 (cat) and HTRA1 (full) inhibitory activity of each HTRA1-inhibiting peptide was evaluated (FIGS. 2 and 3).

[5] = 0.2 and 1 μg/eye intravitreally, n=6

T1 sequence (Q92743 158-373): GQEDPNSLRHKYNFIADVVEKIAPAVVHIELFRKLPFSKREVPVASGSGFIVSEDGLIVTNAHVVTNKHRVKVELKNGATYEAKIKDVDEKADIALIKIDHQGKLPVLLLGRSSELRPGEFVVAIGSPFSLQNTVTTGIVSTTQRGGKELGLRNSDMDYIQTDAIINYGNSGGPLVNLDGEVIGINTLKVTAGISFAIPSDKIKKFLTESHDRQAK

B1: H308_D1G_S16A: N-terminal derivative of H308, 1Asp substituted with Gly, with S16A, SEQ ID NO: 24 (FIG. 36) (protein)
chain: GPQFGLFSKYRTPNCADHAGMACVALYEPVCGSDMSTYENECVLCMKIREGGHNIKIIRNGPCGG
- nucleus count in an outer nuclear layer on a cross-section of the retina [1, 5]: suppressed a decrease in nucleus count in an outer nuclear layer
- expression of VEGF mRNA [2]: confirmed to suppress the expression of VEGF
- migration of HUVEC induced in serum-containing medium [3]: suppressive effect on the migration of HUVEC

B2: H308: SPINK2 mutant HTRA1-inhibiting peptide, amino acid sequence SEQ ID NO: 9 (FIG. 21) (protein)
chain: DPQFGLFSKYRTPNCSDHAGMACVALYEPVCGSDMSTYENECVLCMKIREGGHNIKIIRNGPCGG
- nucleus count in an outer nuclear layer on a cross-section of the retina ([1]; 5 μL of 0.04 mg/mL or 0.2 mg/mL intravitreally immediately before light exposure, vs normal saline): effect of suppressing the decrease in nucleus count in an outer nuclear layer was confirmed
- hypertrophy of RPE cells: average area of RPE cells [4]: exhibited a suppressive effect on the hypertrophy of RPE cells
- hypertrophy of RPE cells: number of RPE cells having a cell area of 1500 μm^2 or larger [4]: exhibited a suppressive effect on the hypertrophy of RPE cells

B3: H322AT_D1G_S16A: HTRA1-inhibiting peptide derivative, amino acid sequence SEQ ID NO: 29 (FIG. 41) (protein)
chain: GPQFGLFSKYRTPNCAQHEGMACYALYEPVCGSDMSTYANECTLCMKIREGGHNIKIIRNGPCGG
- nucleus count in an outer nuclear layer on a cross-section of the retina [1, 5]: suppressed a decrease in nucleus count in an outer nuclear layer

B4: H321AT_D1G_S16A: HTRA1-inhibiting peptide derivative, amino acid sequence SEQ ID NO: 28 (FIG. 40) (protein)
chain: GPQFGLFSKYRTPNCADFDGMACYAFYEPVCGSDMSTYANECTLCMKIREGGHNIKIIRNGPCGG
- nucleus count in an outer nuclear layer on a cross-section of the retina [1, 5]: suppressed a decrease in nucleus count in an outer nuclear layer

B5: wild-type SPINK2: human serine protease inhibitor Kazal-type 2, 7 kDa, SEQ ID NO: 1 (FIG. 13); control (protein, listed as Homo sapiens)
chain: DPQFGLFSKYRTPNCSQYRLPGCPRHFNPVCGSDMSTYANECTLCMKIREGGHNIKIIRNGPC
- HTRA1 (cat) inhibitory activity (in words) (HTRA1 (cat)): exhibited no HTRA1 inhibitory activity
